Measurements: patent US20210379195A1, “METHODS FOR ALLOGENEIC HEMATOPOIETIC STEM CELL TRANSPLANTATION” (Magenta Therapeutics, Inc., priority 2018, published 2021)

The molecules below were run against T1, CD117 (Homo sapiens, UniProt P10721) (assay: In vitro stem cell factor (SCF)-dependent cell proliferation assay (neutral vs antagonist)).
Format: cell-based
Design: endogenous in cells; host or cells: CD34+ cells dependent on SCF
Description: Neutral antibodies can be identified using, for example, an in in vitro stem cell factor (SCF)-dependent cell proliferation assay. In an SCF dependent cell proliferation assay, a neutral CD117 antibody will not kill CD34+ cells that are dependent on SCF to divide, as a neutral antibody will not block SCF from binding to CD117 such as to inhibit CD117 activity.

T1 sequence (P10721 26-976): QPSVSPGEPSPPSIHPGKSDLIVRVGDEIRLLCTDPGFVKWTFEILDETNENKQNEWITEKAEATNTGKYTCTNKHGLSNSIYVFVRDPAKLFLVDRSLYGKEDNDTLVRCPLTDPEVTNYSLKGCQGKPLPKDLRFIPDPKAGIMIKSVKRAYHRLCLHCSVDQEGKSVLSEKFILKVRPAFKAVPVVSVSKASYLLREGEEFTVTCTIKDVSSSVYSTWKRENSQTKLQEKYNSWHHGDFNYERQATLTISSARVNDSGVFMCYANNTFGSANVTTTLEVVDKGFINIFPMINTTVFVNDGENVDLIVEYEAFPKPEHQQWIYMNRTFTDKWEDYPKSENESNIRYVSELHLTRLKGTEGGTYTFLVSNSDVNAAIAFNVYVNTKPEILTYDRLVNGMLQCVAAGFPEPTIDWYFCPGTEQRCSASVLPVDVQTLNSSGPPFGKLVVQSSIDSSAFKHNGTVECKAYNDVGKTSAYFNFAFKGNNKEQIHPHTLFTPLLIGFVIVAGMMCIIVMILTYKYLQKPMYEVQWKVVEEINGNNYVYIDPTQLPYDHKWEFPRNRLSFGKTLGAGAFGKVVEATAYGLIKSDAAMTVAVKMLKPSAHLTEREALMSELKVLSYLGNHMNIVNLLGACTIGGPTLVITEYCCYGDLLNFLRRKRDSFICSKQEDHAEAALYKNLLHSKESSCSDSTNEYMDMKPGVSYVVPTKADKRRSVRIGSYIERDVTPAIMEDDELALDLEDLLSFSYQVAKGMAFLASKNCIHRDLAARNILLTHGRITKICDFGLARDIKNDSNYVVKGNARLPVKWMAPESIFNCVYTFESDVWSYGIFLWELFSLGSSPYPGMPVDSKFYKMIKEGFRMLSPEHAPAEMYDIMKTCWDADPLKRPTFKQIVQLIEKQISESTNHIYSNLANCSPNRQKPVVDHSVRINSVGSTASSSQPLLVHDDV

Molecule	effect on CD117 activity (neutral or antagonist antibody)
Ab54: anti-CD117 antibody, VH SEQ ID NO: 29, VL SEQ ID NO: 30 (antibody, V domains shown) VH: QVQLVQSGAEVKKPGSSVKVSCKASGGTFSSYAISWVRQAPGQGLEWMGGIIPIFGTANYAQKFQGRVTITADESTSTAYMELSSLRSEDTAVYYCARGGLDTDEFDLWGRGTLVTVSS VL: DIQMTQSPSSLSASVGDRVTITCRASQSINSYLNWYQQKPGKAPKLLIYAASSLQSGVPSRFSGSGSGTDFTLTISSLQPEDFATYYCQQGVSDITFGGGTKVEIK	Antagonist
Ab55: anti-CD117 antibody, VH SEQ ID NO: 19, VL SEQ ID NO: 20 (antibody, V domains shown) VH: QVQLVQSGAEVKKPGSSVKVSCKASGGTFRIYAISWVRQAPGQGLEWMGGIIPDFGVANYAQKFQGRVTITADESTSTAYMELSSLRSEDTAVYYCARGGLDTDEFDLWGRGTLVTVSS VL: DIQMTQSPSSLSASVGDRVTITCRASQSINSYLNWYQQKPGKAPKLLIYAASSLQSGVPSRFSGSGSGTDFTLTISSLQPEDFATYYCQQGVSDITFGGGTKVEIK	Antagonist
Ab56: anti-CD117 antibody, VH SEQ ID NO: 39, VL SEQ ID NO: 40 (antibody, V domains shown) VH: QVQLVQSGAEVKKPGSSVKVSCKASGGTFSLYAISWVRQAPGQGLEWMGGIIPAFGTANYAQKFQGRVTITADESTSTAYMELSSLRSEDTAVYYCARGGLDTDEFDLWGRGTLVTVSS VL: DIQMTQSPSSLSASVGDRVTITCRASQSINSYLNWYQQKPGKAPKLLIYAASSLQSGVPSRFSGSGSGTDFTLTISSLQPEDFATYYCQQGVSDITFGGGTKVEIK	Antagonist
Ab57: anti-CD117 antibody, VH SEQ ID NO: 49, VL SEQ ID NO: 50 (antibody, V domains shown) VH: QVQLVQSGAEVKKPGSSVKVSCKASGGTFSLYAISWVRQAPGQGLEWMGGIIPHFGLANYAQKFQGRVTITADESTSTAYMELSSLRSEDTAVYYCARGGLDTDEFDLWGRGTLVTVSS VL: DIQMTQSPSSLSASVGDRVTITCRASQSINSYLNWYQQKPGKAPKLLIYAASSLQSGVPSRFSGSGSGTDFTLTISSLQPEDFATYYCQQGVSDITFGGGTKVEIK	Antagonist
Ab61: anti-CD117 antibody, VH SEQ ID NO: 69, VL SEQ ID NO: 70 (antibody, V domains shown) VH: EVQLLESGGGLVQPGGSLRLSCAASGFTFSSYVMIWVRQAPGKGLEWVSSISGDSVTTYYADSVKGRFTISRDNSKNTLYLQMNSLRAEDTAVYYCAKGPPTYHTNYYYMDVWGKGTTVTVSS VL: DIQMTQSPSSVSASVGDRVTITCRASQGISSWLAWYQQKPGKAPKLLIYAASSLQSGVPSRFSGSGSGTDFTLTISSLQPEDFATYYCQQTNSFPYTFGGGTKVEIK	neutral

The molecules below were run against T1, CD117 (assay: Bio-layer interferometry (BLI) binding).
Description: In certain embodiments, an anti-CD117 antibody, or antigen binding fragment thereof, has a certain dissociation rate which is particularly advantageous when used as a part of a conjugate. For example, an anti-CD117 antibody has, in certain embodiments, an off rate constant (Koff) for human CD117 and/or rhesus CD117 of 1×10^−2 to 1×10^−3, 1×10^−3 to 1×10^−4, […] or 1×10^−7 to 1×10^−8, as measured by bio-layer interferometry (BLI). In some embodiments, the antibody or antigen-binding fragment thereof binds CD117 (e.g., human CD117 and/or rhesus CD117) with a KD of about 100 nM or less, about 90 nM or less, about 80 nM or less, about 70 nM or less, about 60 nM or less, about 50 nM or less, about 40 nM or less, about 30 nM or less, about 20 nM or less, about 10 nM or less, about 8 nM or less, about 6 nM or less, about 4 nM or less, about 2 nM or less, about 1 nM or less as determined by a Bio-Layer Interferometry (BLI) assay.
Thus, in certain embodiments, an anti-CD117 antibody comprises a heavy chain comprising a CDR set (CDR1, CDR2, and CDR3) as set forth in SEQ ID Nos: 245, 246, and 247, and a light chain comprising a CDR set as set forth in SEQ ID Nos: 248, 249, and […], internalizes in cells expressing CD117, and has a koff rate of 5×10^−4 s^−1 or less as measured by BLI.

binding characteristics over CK6	Molecule
improved binding characteristics	Ab249: human anti-CD117 antibody derived from CK6, VH SEQ ID NO: 238, VL SEQ ID NO: 242 (antibody, V domains shown) VH: EVQLVQSGAEVKKPGESLKISCKGSGYRFTTSWIGWVRQMPGKGLEWMGIIYPGDSDTRYSPSFQGQVTISADKSISTAYLQWSSLKASDTAMYYCARHGLGYNGYEGAFDIWGQGTLVTVSS VL: DIQMTQSPSSLSASVGDRVTITCRASQGIGSALAWYQQKPGKAPKLLIYDASNLETGVPSRFSGSGSGTDFTLTISSLQPEDFATYYCQQLNGYPLTFGQGTRLEIK
